From patent US20120315284

T1: GST-c-Jun, P05412
T1 chain: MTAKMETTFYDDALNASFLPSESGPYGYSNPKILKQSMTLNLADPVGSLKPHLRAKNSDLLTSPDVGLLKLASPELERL


How the values were obtained:
[1] = molecular target: recombination GST-JNK1, P45983
GST-c-Jun, P05412 = molecular target: T1, GST-c-Jun, P05412

Protein | in vitro immune-co-kinase analysis (32P phosphorylation by immunoprecipitated MKK7) [1] | in vitro immune-co-kinase analysis (32P phosphorylation) (GST-c-Jun, P05412)
MKK7 in cell lysate (immunoprecipitated with MKK7 antibody; the cells' own MKK7) (protein) AASSLEQKLSRLEAKLKQENREARRRIDLNLDISPQRPRPTLQLPLANDGGSRSPSSESSPQHPTPPARPRHMLGLPSTLFTPRSMESIEIDQKLQEIMKQTGYLTIGGQRYQAEINDLENLGEMGSGTCGQVWKMRFRKTGHVIAVKQMRRSGNKEENKRILMDLDVVLKSHDCPYIVQCFGTFITNTDVFIAMELMGTCAEKLKKRMQGPIPERILGKMTVAIVKALYYLKEKHGVIHRDVKPSNILLDERGQIKLCDFGISGRLVDSKAKTRSAGCAAYMAPERIDPPDPTKPDYDIRADVWSLGISLVELATGQFPYKNCKTDFEVLTKVLQEEPPLLPGHMGFSGDFQSFVKDCLTKDHRKRPKYNKLLEHSFIKRYETLEVDVASWFKDVMAKTESPRTSGVLSQPHLPFFR | MKK7 was activated by depletion of TIP41 and phosphorylated GST-JNK1, a substrate of MKK7 | 
recombination GST-JNK1 (protein) MSRSKRDNNFYSVEIGDSTFTVLKRYQNLKPIGSGAQGIVCAAYDAILERNVAIKKLSRPFQNQTHAKRAYRELVLMKCVNHKNIIGLLNVFTPQKSLEEFQDVYIVMELMDANLCQVIQMELDHERMSYLLYQMLCGIKHLHSAGIIHRDLKPSNIVVKSDCTLKILDFGLARTAGTSFMMTPYVVTRYYRAPEVILGMGYKENVDLWSVGCIMGEMVCHKILFPGRDYIDQWNKVIEQLGTPCPEFMKKLQPTVRTYVENRPKYAGYSFEKLFPDVLFPADSEHNKLKASQARDLLSKMLVIDASKRISVDEALQHPYINVWYDPSEAEAPPPKIPDKQLDEREHTIEEWKELIYKEVMDLEERTKNGVIRGQPSPLAQVQQ |  | the activated JNK1 phosphorylated GST-c-jun protein, a substrate of JNK pathway
